Test results: IntAct's records for PubMed 19011093

B1: RAN GTPase-activating protein 1 (Arabidopsis thaliana (Mouse-ear cress)), Q9LE82 (parent)
chain: MDHSAKTTQNRVLSVKMWPPSKSTRLMLVERMTKNITTPSIFSRKYGLLSVEEAEQDAKRIEDLAFATANKHFQNEPDGDGTSAVHVYAKESSKLMLDVIKRGPQEESEVEVSKDGDVFFDISGGSRAFIEEEEARDLLRPLADPRNSYTKIRFSNRSFGSEAAKFAASVLSSIKDQLTEVDLSDFVAGRPEAEALEVMNMFSSALEGSKLRYLNLSDNALGEKGIRAFASLINSQHDLEELYLMNDGISEDAARAVRELLPSTDKIRVLQFHNNMTGDEGATAIAEIVRECPSLEDFRCSSTRIGSEGGVALAEALEHCSHLKKLDLRDNMFGVEGGIALAKTLSVLTHLTEIYMSYLNLEDEGTEALSEALLKSAPSLEVLELAGNDITVKSTGNLAACIASKQSLAKLNLSENELKDEGTILIAKAVEGHDQLVEVDLSTNMIRRAGARALAQTVVKKNTFKLLNINGNFISEEGIDEVNDMFKDCLDKLVPLDDNDPEGEDFEDEDEEEEGEDGNELESKLGSLKIKQGEE

Variants of: B1
Details: with kn12c_arath KIN12C

Variant	effect of a mutation on the interaction
MDHSAKTTQNRVLSVKMAAPSKSTRLMLVERMTKNITTPSIFSRKYGLLSVEEAEQDAKRIEDLAFATANKHFQNEPDGDGTSAVHVYAKESSKLMLDVIKRGPQEESEVEVSKDGDVFFDISGGSRAFIEEEEARDLLRPLADPRNSYTKIRFSNRSFGSEAAKFAASVLSSIKDQLTEVDLSDFVAGRPEAEALEVMNMFSSALEGSKLRYLNLSDNALGEKGIRAFASLINSQHDLEELYLMNDGISEDAARAVRELLPSTDKIRVLQFHNNMTGDEGATAIAEIVRECPSLEDFRCSSTRIGSEGGVALAEALEHCSHLKKLDLRDNMFGVEGGIALAKTLSVLTHLTEIYMSYLNLEDEGTEALSEALLKSAPSLEVLELAGNDITVKSTGNLAACIASKQSLAKLNLSENELKDEGTILIAKAVEGHDQLVEVDLSTNMIRRAGARALAQTVVKKNTFKLLNINGNFISEEGIDEVNDMFKDCLDKLVPLDDNDPEGEDFEDEDEEEEGEDGNELESKLGSLKIKQGEE [W18A;P19A]	decreasing interaction
